Molecular target: truncated core tau unit terminating at Ala-390 (human) (UniProt P10636)
Test: ELISA tau-tau binding assay; core tau unit in the solid phase, full-length tau in the aqueous phase

truncated core tau unit terminating at Ala-390 (human), sequence (P10636 614-707 limits assumed): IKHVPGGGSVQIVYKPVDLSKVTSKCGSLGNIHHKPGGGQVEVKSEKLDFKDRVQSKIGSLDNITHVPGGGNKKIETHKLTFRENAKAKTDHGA

Kd: 8 to 25 nM
Substance: normal full-length tau protein (the particular tau species/isoform tested)

Reference: patent US6953794
